One experiment addresses T1, cynomolgus monkey CRTh2 (cynomolgus monkey, UniProt Q9Y5Y4 1-395 (human entry)).
T1 construct: also called cyno CRTh2; cynomologous CRTh2
T1 chain: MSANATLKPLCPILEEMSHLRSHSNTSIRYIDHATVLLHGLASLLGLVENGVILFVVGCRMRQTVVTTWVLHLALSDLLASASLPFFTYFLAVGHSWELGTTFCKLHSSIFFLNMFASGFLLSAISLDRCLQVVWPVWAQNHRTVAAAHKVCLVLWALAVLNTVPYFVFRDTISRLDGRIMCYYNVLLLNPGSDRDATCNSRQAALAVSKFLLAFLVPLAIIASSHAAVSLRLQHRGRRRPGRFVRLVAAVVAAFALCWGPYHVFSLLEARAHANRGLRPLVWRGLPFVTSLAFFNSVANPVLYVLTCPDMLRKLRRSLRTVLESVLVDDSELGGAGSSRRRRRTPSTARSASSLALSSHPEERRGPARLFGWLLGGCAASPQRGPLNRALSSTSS
Nature of the experiment: flow cytometry on 300.19 cells expressing amino-terminal Flag-tagged cynomolgus CRTh2 [Cont.].

In experiment [1] the target is T2, rhesus monkey CRTh2 (rhesus monkey, UniProt Q9Y5Y4 1-395 (human entry)).
T2 construct: also called rhesus CRTh2
T2 chain: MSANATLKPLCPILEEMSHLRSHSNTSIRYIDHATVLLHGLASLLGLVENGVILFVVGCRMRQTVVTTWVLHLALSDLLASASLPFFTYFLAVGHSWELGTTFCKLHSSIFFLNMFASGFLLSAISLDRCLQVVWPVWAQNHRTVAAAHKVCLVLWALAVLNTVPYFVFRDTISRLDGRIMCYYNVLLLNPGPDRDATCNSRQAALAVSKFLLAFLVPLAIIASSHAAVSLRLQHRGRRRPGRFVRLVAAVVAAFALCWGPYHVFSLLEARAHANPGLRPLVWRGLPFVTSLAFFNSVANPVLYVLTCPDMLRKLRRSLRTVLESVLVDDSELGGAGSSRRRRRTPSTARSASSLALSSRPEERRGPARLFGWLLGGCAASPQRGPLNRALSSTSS
Nature of the experiment: flow cytometry on 300.19 cells expressing amino-terminal Flag-tagged rhesus CRTh2.

The target of experiment [2] is T2, rhesus monkey CRTh2. The experiment is described as follows: flow cytometry on 293 cells expressing rhesus CRTh2. On the technique in general: A flow cytometer gives signals particle by particle.

B1: mouse anti-human CRTh2 monoclonal antibody 8B1 (antibody, V domains shown)
VH: QVQLQQSGTGLVRPGTSVRVSCKASGYAFITYLIEWIKQRPGQGLEWIGVIHPGSGNSHYNEKFKGKATLTADTSSSTAYMQLSSLTSGDSAVYFCARSGSSSFDYYAMDFWGQGTSVTVSS
VL: DIQMTQSPSSLSASLGERVSLTCRASQEISGYFSWLQQKPDGTIKRLIYAASTLDSGVPKRFSGSRSGSDYSLTISSLESEDFADYYCLQYANYPYTFGGGTKLEIK
notes: also called mu8B1; Mab 8B1
For the molecule B1, the binding result with cynomolgus monkey CRTh2 is reported as “no binding (tested: 1 ug/ml)”; in the experiment with rhesus monkey CRTh2 [1], “no binding (tested: 5 ug/ml)”.

B2: mouse anti-human CRTh2 monoclonal antibody 19A2 (antibody, mouse IgG2a, V domains shown)
VH: EVKLVESGGGLVQPGGSLKLSCAASGFTFSSYSMSWVRQTPEKRLEWVAYISNGGSTTYYPGTVEGRFTISRDNAKNTLFLQMSSLRSKDTAMYYCARHRTNWDFDYWGQGTTLTVSS
VL: DIQMTQSPASLSVSVGETVTITCRASENIYSNLAWYQQKQGKSPQLVVYAATQLADGVPSRFSGSGSGTQYSLKINSLQSEDFGSYYCQHFWITPWTFGGGTKLEIK
notes: also called mu19A2; Mu19A2
As for B2, the binding result in the experiment with rhesus monkey CRTh2 [2] is reported as “no binding (tested: 20 ug/ml)”.

These data come from patent publication US20140328849A1 (Genentech, published 2014).
